Experimental data as given in publication PMC2756588.

T1: Abp1, P15891
T1 sequence (P15891 535-592, looked up): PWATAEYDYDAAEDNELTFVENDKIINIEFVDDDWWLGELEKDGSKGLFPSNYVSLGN

T2: Bbc1, P47068
T2 sequence (P47068 1-78, looked up): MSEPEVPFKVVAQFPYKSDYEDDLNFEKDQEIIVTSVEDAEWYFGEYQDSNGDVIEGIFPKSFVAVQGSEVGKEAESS

T3: Boi1, P38041
T3 sequence (P38041 1-86, looked up): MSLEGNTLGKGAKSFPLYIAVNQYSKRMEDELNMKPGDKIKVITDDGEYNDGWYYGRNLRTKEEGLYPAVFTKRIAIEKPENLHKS

T4: Boi2, P39969
T4 sequence (P39969 32-116, looked up): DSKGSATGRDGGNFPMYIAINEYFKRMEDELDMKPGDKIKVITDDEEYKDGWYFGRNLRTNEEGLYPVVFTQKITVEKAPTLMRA

T5: Bud14, P27637
T5 sequence (P27637 247-328, looked up): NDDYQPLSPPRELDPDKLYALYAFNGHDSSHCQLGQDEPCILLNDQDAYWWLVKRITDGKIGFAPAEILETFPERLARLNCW

T6: Bzz1-1, P38822
T6 sequence (P38822 478-572, looked up): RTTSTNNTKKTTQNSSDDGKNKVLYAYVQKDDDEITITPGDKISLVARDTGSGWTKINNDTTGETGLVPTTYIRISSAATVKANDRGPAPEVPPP

T7: Bzz1-2, P38822
T7 sequence (P38822 568-633, looked up): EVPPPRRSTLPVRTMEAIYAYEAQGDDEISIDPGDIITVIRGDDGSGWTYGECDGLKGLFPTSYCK

T8: Cdc25, P04821
T8 sequence (P04821 50-136, looked up): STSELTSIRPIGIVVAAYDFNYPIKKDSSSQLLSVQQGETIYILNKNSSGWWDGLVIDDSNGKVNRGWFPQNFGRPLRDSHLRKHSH

T9: Cyk3, Q07533
T9 sequence (Q07533 1-83, looked up): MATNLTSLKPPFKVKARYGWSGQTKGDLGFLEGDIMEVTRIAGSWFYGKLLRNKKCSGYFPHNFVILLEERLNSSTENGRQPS

T10: Fus1, P11710
T10 sequence (P11710 432-512, looked up): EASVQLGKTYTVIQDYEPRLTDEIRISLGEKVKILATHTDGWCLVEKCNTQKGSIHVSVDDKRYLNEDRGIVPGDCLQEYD

T11: Hof1, Q05080
T11 sequence (Q05080 590-669, looked up): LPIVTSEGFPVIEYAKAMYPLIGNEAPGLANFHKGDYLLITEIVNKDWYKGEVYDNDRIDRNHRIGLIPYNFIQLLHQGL

T12: Hse1, P38753
T12 sequence (P38753 208-285, looked up): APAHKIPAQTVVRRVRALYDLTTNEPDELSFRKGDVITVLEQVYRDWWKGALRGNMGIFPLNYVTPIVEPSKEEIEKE

T13: Lsb1, P53281
T13 sequence (P53281 45-122, looked up): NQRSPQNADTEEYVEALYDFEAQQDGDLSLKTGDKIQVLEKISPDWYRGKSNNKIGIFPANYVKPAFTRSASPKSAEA

T14: Lsb3, P43603
T14 sequence (P43603 385-451, looked up): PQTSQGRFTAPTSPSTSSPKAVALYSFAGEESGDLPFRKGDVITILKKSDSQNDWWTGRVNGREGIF

T15: Lsb4, P32793
T15 sequence (P32793 402-468, looked up): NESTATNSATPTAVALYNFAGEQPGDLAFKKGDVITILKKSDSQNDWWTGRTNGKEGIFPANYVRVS

T16: Myo5, Q04439
T16 sequence (Q04439 1072-1160, looked up): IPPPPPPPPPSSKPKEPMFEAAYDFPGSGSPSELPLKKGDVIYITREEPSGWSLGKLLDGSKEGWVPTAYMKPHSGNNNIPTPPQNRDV

T17: Nbp2, Q12163
T17 sequence (Q12163 103-180, looked up): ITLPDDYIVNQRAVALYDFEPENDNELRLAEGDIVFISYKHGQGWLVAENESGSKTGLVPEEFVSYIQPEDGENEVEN

T18: Pex13, P80667
T18 sequence (P80667 295-386, looked up): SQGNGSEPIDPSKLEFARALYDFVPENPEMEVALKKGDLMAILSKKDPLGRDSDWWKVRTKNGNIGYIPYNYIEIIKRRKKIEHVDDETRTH

T19: Pin3, Q06449
T19 sequence (Q06449 53-122, looked up): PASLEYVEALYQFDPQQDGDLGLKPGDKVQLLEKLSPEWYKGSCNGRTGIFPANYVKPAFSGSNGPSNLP

T20: Sla1-2, P32790
T20 sequence (P32790 60-140, looked up): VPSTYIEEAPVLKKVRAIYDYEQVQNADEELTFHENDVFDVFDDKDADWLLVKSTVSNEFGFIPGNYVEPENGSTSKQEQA

T21: Sla1-3, P32790
T21 sequence (P32790 344-424, looked up): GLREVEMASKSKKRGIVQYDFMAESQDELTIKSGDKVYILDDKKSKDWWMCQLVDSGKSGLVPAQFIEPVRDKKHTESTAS


Target: T1, Abp1, P15891
Assay: SPOT array
Settings: median of control spots 935

Binder	SPOT intensity
NGRRRPKFRVQLSGN	209
YRRKSIPFAPHQITA	12
RVRKTHVPASKRPSG	64
KRNRLKILLPFLEQS	64

Target: T2, Bbc1, P47068
Assay: SPOT array
Settings: median of control spots 796

Binder	SPOT intensity
NGRRRPKFRVQLSGN	227
YRRKSIPFAPHQITA	2
RVRKTHVPASKRPSG	11
KRNRLKILLPFLEQS	46

Target: Bem1-1, P29366
Assay: SPOT array
Settings: median of control spots 4282

Chain of Bem1-1, P29366 (P29366 55-141): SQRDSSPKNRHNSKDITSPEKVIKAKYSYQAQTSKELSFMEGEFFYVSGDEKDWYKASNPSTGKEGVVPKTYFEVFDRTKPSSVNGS

Binder	SPOT intensity
NGRRRPKFRVQLSGN	0
YRRKSIPFAPHQITA	0
RVRKTHVPASKRPSG	0
KRNRLKILLPFLEQS	0

Target: Bem1-2, P29366
Assay: SPOT array
Settings: median of control spots 4347

Chain of Bem1-2, P29366 (P29366 139-227): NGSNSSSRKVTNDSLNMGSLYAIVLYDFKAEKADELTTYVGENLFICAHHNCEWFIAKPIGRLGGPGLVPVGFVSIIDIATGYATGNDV

Binder	SPOT intensity
NGRRRPKFRVQLSGN	6
YRRKSIPFAPHQITA	3
RVRKTHVPASKRPSG	0
KRNRLKILLPFLEQS	0

Target: T3, Boi1, P38041
Assay: SPOT array
Settings: median of control spots 1162

Binder	SPOT intensity
NGRRRPKFRVQLSGN	16
YRRKSIPFAPHQITA	0
RVRKTHVPASKRPSG	1
KRNRLKILLPFLEQS	9

Target: T4, Boi2, P39969
Assay: SPOT array
Settings: median of control spots 1161

Binder	SPOT intensity
NGRRRPKFRVQLSGN	5
YRRKSIPFAPHQITA	1
RVRKTHVPASKRPSG	1
KRNRLKILLPFLEQS	3

Target: T5, Bud14, P27637
Assay: SPOT array
Settings: median of control spots 956

Binder	SPOT intensity
NGRRRPKFRVQLSGN	23
YRRKSIPFAPHQITA	0
RVRKTHVPASKRPSG	5
KRNRLKILLPFLEQS	8

Target: T6, Bzz1-1, P38822
Assay: SPOT array
Settings: median of control spots 4446

Binder	SPOT intensity
NGRRRPKFRVQLSGN	1
YRRKSIPFAPHQITA	0
RVRKTHVPASKRPSG	0
KRNRLKILLPFLEQS	0

Target: T7, Bzz1-2, P38822
Assay: SPOT array
Settings: median of control spots 4538

Binder	SPOT intensity
NGRRRPKFRVQLSGN	0
YRRKSIPFAPHQITA	5
RVRKTHVPASKRPSG	0
KRNRLKILLPFLEQS	0

Target: T8, Cdc25, P04821
Assay: SPOT array
Settings: median of control spots 969

Binder	SPOT intensity
NGRRRPKFRVQLSGN	87
YRRKSIPFAPHQITA	2
RVRKTHVPASKRPSG	0
KRNRLKILLPFLEQS	28

Target: T9, Cyk3, Q07533
Assay: SPOT array
Settings: median of control spots 1451

Binder	SPOT intensity
NGRRRPKFRVQLSGN	8
YRRKSIPFAPHQITA	0
RVRKTHVPASKRPSG	3
KRNRLKILLPFLEQS	14

Target: T10, Fus1, P11710
Assay: SPOT array
Settings: median of control spots 1200

Binder	SPOT intensity
NGRRRPKFRVQLSGN	75
YRRKSIPFAPHQITA	2
RVRKTHVPASKRPSG	5
KRNRLKILLPFLEQS	169

Target: GST
Assay: SPOT array
Settings: median of control spots 978

Binder	SPOT intensity
NGRRRPKFRVQLSGN	3
YRRKSIPFAPHQITA	1
RVRKTHVPASKRPSG	2
KRNRLKILLPFLEQS	5

Target: T11, Hof1, Q05080
Assay: SPOT array
Settings: median of control spots 4086

Binder	SPOT intensity
NGRRRPKFRVQLSGN	24
YRRKSIPFAPHQITA	5
RVRKTHVPASKRPSG	0
KRNRLKILLPFLEQS	6

Target: T12, Hse1, P38753
Assay: SPOT array
Settings: median of control spots 1727

Binder	SPOT intensity
NGRRRPKFRVQLSGN	53
YRRKSIPFAPHQITA	9
RVRKTHVPASKRPSG	2
KRNRLKILLPFLEQS	25

Target: T13, Lsb1, P53281
Assay: SPOT array
Settings: median of control spots 388

Binder	SPOT intensity
NGRRRPKFRVQLSGN	114
YRRKSIPFAPHQITA	8
RVRKTHVPASKRPSG	0
KRNRLKILLPFLEQS	34

Target: T14, Lsb3, P43603
Assay: SPOT array
Settings: median of control spots 406

Binder	SPOT intensity
NGRRRPKFRVQLSGN	8
YRRKSIPFAPHQITA	0
RVRKTHVPASKRPSG	0
KRNRLKILLPFLEQS	2

Target: T15, Lsb4, P32793
Assay: SPOT array
Settings: median of control spots 397

Binder	SPOT intensity
NGRRRPKFRVQLSGN	9
YRRKSIPFAPHQITA	2
RVRKTHVPASKRPSG	1
KRNRLKILLPFLEQS	0

Target: Myo3, P36006
Assay: SPOT array
Settings: median of control spots 468

Binder	SPOT intensity
NGRRRPKFRVQLSGN	30
YRRKSIPFAPHQITA	0
RVRKTHVPASKRPSG	1
KRNRLKILLPFLEQS	10

Target: T16, Myo5, Q04439
Assay: SPOT array
Settings: median of control spots 471

Binder	SPOT intensity
NGRRRPKFRVQLSGN	2
YRRKSIPFAPHQITA	0
RVRKTHVPASKRPSG	0
KRNRLKILLPFLEQS	0

Target: T17, Nbp2, Q12163
Assay: SPOT array
Settings: median of control spots 357

Binder	SPOT intensity
NGRRRPKFRVQLSGN	63
YRRKSIPFAPHQITA	0
RVRKTHVPASKRPSG	0
KRNRLKILLPFLEQS	22

Target: T18, Pex13, P80667
Assay: SPOT array
Settings: median of control spots 1341

Binder	SPOT intensity
NGRRRPKFRVQLSGN	5
YRRKSIPFAPHQITA	10
RVRKTHVPASKRPSG	0
KRNRLKILLPFLEQS	11

Target: T19, Pin3, Q06449
Assay: SPOT array
Settings: median of control spots 2171

Binder	SPOT intensity
NGRRRPKFRVQLSGN	11
YRRKSIPFAPHQITA	9
RVRKTHVPASKRPSG	1
KRNRLKILLPFLEQS	17

Target: Rvs167, P39743
Assay: SPOT array
Settings: median of control spots 2707

Chain of Rvs167, P39743 (P39743 419-482): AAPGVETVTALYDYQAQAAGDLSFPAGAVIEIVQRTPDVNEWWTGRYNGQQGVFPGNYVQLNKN

Binder	SPOT intensity
NGRRRPKFRVQLSGN	0
YRRKSIPFAPHQITA	0
RVRKTHVPASKRPSG	0
KRNRLKILLPFLEQS	0

Target: Sho1, P40073
Assay: SPOT array
Settings: median of control spots 1148

Chain of Sho1, P40073 (P40073 287-367): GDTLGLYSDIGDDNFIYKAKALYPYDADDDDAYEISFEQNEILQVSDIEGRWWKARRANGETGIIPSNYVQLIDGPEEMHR

Binder	SPOT intensity
NGRRRPKFRVQLSGN	155
YRRKSIPFAPHQITA	17
RVRKTHVPASKRPSG	124
KRNRLKILLPFLEQS	81

Target: T20, Sla1-2, P32790
Assay: SPOT array
Settings: median of control spots 712

Binder	SPOT intensity
NGRRRPKFRVQLSGN	5
YRRKSIPFAPHQITA	0
RVRKTHVPASKRPSG	1
KRNRLKILLPFLEQS	0

Target: T21, Sla1-3, P32790
Assay: SPOT array
Settings: median of control spots 5475

Binder	SPOT intensity
NGRRRPKFRVQLSGN	221
YRRKSIPFAPHQITA	28
RVRKTHVPASKRPSG	6
KRNRLKILLPFLEQS	49
